From article PMC8163975 (The Journal of Biological Chemistry, 2021)
Where a chain is given by its changes, count along the chain named.

T1: RRAS1, mGppNHp-bound (human, UniProt P10301 1-218)
T1 construct: human RRAS (RRAS1); Loaded with mGppNHp
T1 sequence (looked up): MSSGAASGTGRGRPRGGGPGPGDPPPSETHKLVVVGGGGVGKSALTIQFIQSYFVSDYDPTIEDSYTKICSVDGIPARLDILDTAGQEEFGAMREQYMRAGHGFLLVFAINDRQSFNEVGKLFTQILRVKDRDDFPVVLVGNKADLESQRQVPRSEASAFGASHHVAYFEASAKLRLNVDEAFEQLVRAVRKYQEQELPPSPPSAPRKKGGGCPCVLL

T2: RAP2A, mGppNHp-bound (human, UniProt P10114 1-183)
T2 construct: human RAP2A; Loaded with mGppNHp
T2 sequence (looked up): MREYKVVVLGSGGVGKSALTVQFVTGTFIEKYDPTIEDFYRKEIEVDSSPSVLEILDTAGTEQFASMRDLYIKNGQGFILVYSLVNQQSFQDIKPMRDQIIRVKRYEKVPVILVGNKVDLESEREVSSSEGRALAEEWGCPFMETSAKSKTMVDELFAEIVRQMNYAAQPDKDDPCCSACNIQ

T3: RALA, mGppNHp-bound (human, UniProt P11233 1-206)
T3 construct: human RALA; Loaded with mGppNHp
T3 sequence (looked up): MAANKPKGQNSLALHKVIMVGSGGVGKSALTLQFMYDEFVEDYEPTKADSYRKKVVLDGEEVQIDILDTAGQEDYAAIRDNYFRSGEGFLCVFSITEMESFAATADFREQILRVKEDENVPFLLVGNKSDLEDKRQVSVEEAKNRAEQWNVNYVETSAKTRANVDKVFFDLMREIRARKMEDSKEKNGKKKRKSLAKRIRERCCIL

B1: RASSF2 RA domain, MBP fusion protein (domain or fragment, human, UniProt P50749 176-264, looked up)
chain: YNHKTSVFTPAYGSVTNVRINSTMTTPQVLKLLLNKFKIENSAEEFALYVVHTSGEKQKLKATDYPLIARILQGPCEQISKVFLMEKDQ
notes: RASSF2 RA domain, aa 176-264 of P50749
B2: RASSF2-to-1 variant of the RASSF2 RA domain, MBP fusion protein (domain or fragment, human, UniProt P50749 176-264, looked up)
chain: B1 chain with A11K, Y12D, V15K, T16H
notes: RASSF2 RA domain (aa 176-264 of P50749, the limits of the wild-type construct) with four hotspot residues changed to those of RASSF1; source: gene synthesis (BioCat) in pMal-c5X-His vector; E. coli, purified
B3: RASSF7 RA domain, MBP fusion protein (domain or fragment, human, UniProt Q02833 6-89, looked up)
chain: AAMELKVWVDGIQRVVCGVSEQTTCQEVVIALAQAIGQTGRFVLVQRLREKERQLLPQECPVGAQATCGQFASDVQFVLRRTGP
notes: RASSF7 RA domain, aa 6-89 of Q02833
B4: RASSF7 RA domain, His-tagged MBP fusion (domain or fragment, human, UniProt Q02833 6-89, looked up)
chain: B3 chain
notes: RASSF7 RAS association (RA) domain, aa 6–89 of Q02833; Cloned into pMal-c5X-His; Used in fluorescence polarisation and, coupled to Ni-NTA beads, in the pull-down; source: E. coli, purified (Ni-NTA)
B5: RASSF3 RA domain, MBP fusion protein (domain or fragment, human, UniProt Q86WH2 79-187, looked up)
chain: YTGFIKVQMELCKPPQTSPNSGKLSPSSNGCMNTLHISSTNTVGEVIEALLKKFLVTESPAKFALYKRCHREDQVYACKLSDREHPLYLRLVAGPRTDTLSFVLREHEI
notes: RASSF3 RA domain, aa 79-187 of Q86WH2
B6: RASSF1 RA domain, MBP fusion protein (domain or fragment, human, UniProt Q9NS23 194-288, looked up)
chain: RGPGRGTSVRRRTSFYLPKDAVKHLHVLSRTRAREVIEALLRKFLVVDDPRKFALFERAERHGQVYLRKLLDDEQPLRLRLLAGPSDKALSFVLK
notes: RASSF1 RA domain, aa 194-288 of Q9NS23
B7: RASSF4 RA domain, MBP fusion protein (domain or fragment, human, UniProt Q9H2L5 174-262, looked up)
chain: YNHKTSVFTPAYGSVTNVRVNSTMTTLQVLTLLLNKFRVEDGPSEFALYIVHESGERTKLKDCEYPLISRILHGPCEKIARIFLMEADL
notes: RASSF4 RA domain, aa 174-262 of Q9H2L5
B8: RASSF5 RA domain, MBP fusion protein (domain or fragment, UniProt Q5EBH1 200-358, looked up)
chain: PPTIQEIKQKIDSYNSREKHCLGMKLSEDGTYTGFIKVHLKLRRPVTVPAGIRPQSIYDAIKEVNPAATTDKRTSFYLPLDAIKQLHISSTTTVSEVIQGLLKKFMVVDNPQKFALFKRIHKDGQVLFQKLSIADYPLYLRLLAGPDTDVLSFVLKENE
notes: RASSF5 RA domain, aa 200-358 of Q5EBH1 as the methods print it; also called NORE1; RAPL
B9: RASSF6 RA domain, MBP fusion protein (domain or fragment, human, UniProt Q6ZTQ3 218-306, looked up)
chain: YNHETSIFIPAFESETKVRVNSNMRTEEVIKQLLQKFKIENSPQDFALHIIFATGEQRRLKKTDIPLLQRLLQGPSEKNARIFLMDKDA
notes: RASSF6 RA domain, aa 218-306 of Q6ZTQ3
B10: RASSF10 RA domain, MBP fusion protein (domain or fragment, human, UniProt A6NK89 4-133, looked up)
chain: SEKKISVWICQEEKLVSGLSRRTTCSDVVRVLLEDGCRRRRRQRRSRRLGSAGDPHGPGELPEPPNEDDEDDDEALPQGMLCGPPQCYCIVEKWRGFERILPNKTRILRLWAAWGEEQENVRFVLVRSEA
notes: RASSF10 RA domain, aa 4-133 of A6NK89
B11: RASSF8 RA domain, MBP fusion protein (domain or fragment, human, UniProt Q8NHQ8 1-82, looked up)
chain: MELKVWVDGVQRIVCGVTEVTTCQEVVIALAQAIGRTGRYTLIEKWRDTERHLAPHENPIISLNKWGQYASDVQLILRRTGP
notes: RASSF8 RA domain, aa 1-82 of Q8NHQ8
B12: RASSF9 RA domain, MBP fusion protein (domain or fragment, human, UniProt O75901 25-119, looked up)
chain: EEKEIVVWVCQEEKLVCGLTKRTTSADVIQALLEEHEATFGEKRFLLGKPSDYCIIEKWRGSERVLPPLTRILKLWKAWGDEQPNMQFVLVKADA
notes: RASSF9 RA domain, aa 25-119 of O75901
B13: RASSF9 RA domain, His-tagged MBP fusion (domain or fragment, human, UniProt O75901 25-119, looked up)
chain: B12 chain
notes: RASSF9 RAS association (RA) domain, aa 25–119 of O75901; Cloned into pMal-c5X-His; Used in fluorescence polarisation and, coupled to Ni-NTA beads, in the pull-down; source: E. coli, purified (Ni-NTA)
B14: RAP1B, mGppNHp-bound (natural protein, human, UniProt P61224 1-184, looked up)
chain: MREYKLVVLGSGGVGKSALTVQFVQGIFVEKYDPTIEDSYRKQVEVDAQQCMLEILDTAGTEQFTAMRDLYMKNGQGFALVYSITAQSTFNDLQDLREQILRVKDTDDVPMILVGNKCDLEDERVVGKEQGQNLARQWNNCAFLESSAKSKINVNEIFYDLVRQINRKTPVPGKARKKSSCQLL
notes: human RAP1B; Loaded with mGppNHp

Key:
Conditions in all cases: both partners purified
RRAS1, mGppNHp-bound [1] = target: T1, RRAS1, mGppNHp-bound; assay: fluorescence polarisation; increasing concentrations of the RA/RB domain as MBP fusion protein (0.002-300 µM; or MBP alone) titrated to mGppNHp-bound RAS protein (1 µM); 30 mM Tris-HCl pH 7.4, 100 mM NaCl, 5 mM MgCl2, 3 mM DTT; Kd from a quadratic ligand-binding equation
RAP1B, mGppNHp-bound = target: B14; assay: as above
RAP2A, mGppNHp-bound = target: T2, RAP2A, mGppNHp-bound; assay: as above
RALA, mGppNHp-bound [2] = target: T3, RALA, mGppNHp-bound; assay: as above
RHEB1, mGppNHp-bound = target: T4, RHEB1, mGppNHp-bound (human, UniProt Q15382 1-184); assay: as above
T4 construct: human RHEB1; Loaded with mGppNHp; the discussion speaks of the RHEB G domain
T4 sequence (Q15382 whole entry): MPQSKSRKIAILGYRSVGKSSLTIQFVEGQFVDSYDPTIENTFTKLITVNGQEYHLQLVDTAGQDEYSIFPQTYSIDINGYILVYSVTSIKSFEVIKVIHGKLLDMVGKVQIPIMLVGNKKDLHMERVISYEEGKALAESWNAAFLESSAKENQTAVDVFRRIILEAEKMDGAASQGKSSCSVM

RRAS1, mGppNHp-bound [3] = target: T1, RRAS1, mGppNHp-bound; assay: as above; remark: listed apart in the source
RALA, mGppNHp-bound [4] = target: T3, RALA, mGppNHp-bound; assay: as above; remark: listed apart in the source
RIT1•mGppNHp = target: T5, RIT1•mGppNHp (human, UniProt Q92963 1-219); assay: fluorescence polarisation; increasing concentrations of RA/RB domains as MBP fusions (0.002–300 μM) added to mGppNHp-bound RAS proteins (1 μM); 30 mM Tris-HCl pH 7.4, 100 mM NaCl, 5 mM MgCl2, 3 mM DTT; quadratic ligand-binding equation
T5 construct: human RIT1; Loaded with mGppNHp
T5 sequence (Q92963 whole entry, the tested form may be a part): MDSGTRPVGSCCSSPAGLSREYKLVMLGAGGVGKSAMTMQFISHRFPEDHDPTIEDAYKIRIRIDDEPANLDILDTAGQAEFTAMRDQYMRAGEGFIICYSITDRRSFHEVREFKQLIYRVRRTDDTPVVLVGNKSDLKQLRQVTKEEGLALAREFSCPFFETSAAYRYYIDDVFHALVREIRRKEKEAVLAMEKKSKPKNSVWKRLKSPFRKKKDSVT

RIT1, mGppNHp-bound = target: T6, RIT1, mGppNHp-bound (human, UniProt Q92963 1-219); assay: fluorescence polarisation; increasing concentrations of the RA/RB domain as MBP fusion protein (0.002-300 µM; or MBP alone) titrated to mGppNHp-bound RAS protein (1 µM); 30 mM Tris-HCl pH 7.4, 100 mM NaCl, 5 mM MgCl2, 3 mM DTT; Kd from a quadratic ligand-binding equation
T6 construct: human RIT1; Loaded with mGppNHp
T6 sequence (Q92963 whole entry, the tested form may be a part): as above

HRAS, mGppNHp-bound = target: T7, HRAS, mGppNHp-bound (human, UniProt P01112-1 1-189); assay: as above
T7 construct: human HRAS; Loaded with mGppNHp, a fluorescent non-hydrolysable GTP analogue; That the RAS proteins were the pGEX (GST) constructs is surmised; also called HRAS1; p21HRAS

[5] = target: T8, CRAF RB domain, MBP fusion protein (human, UniProt P04049 51-131); assay: as above
T8 construct: source: E. coli (pMal-c5X-His vector), purified as MBP fusion protein

Row | Binder | Kd (RRAS1, mGppNHp-bound [1]) [µM] | Kd (RAP1B, mGppNHp-bound) [µM] | Kd (RAP2A, mGppNHp-bound) [µM] | Kd (RALA, mGppNHp-bound [2]) [µM] | Kd (RHEB1, mGppNHp-bound) [µM] | Kd (RRAS1, mGppNHp-bound [3]) [µM] | Kd (RALA, mGppNHp-bound [4]) [µM] | Kd (RIT1•mGppNHp) [µM] | Kd (RIT1, mGppNHp-bound) [µM] | Kd (HRAS, mGppNHp-bound) [µM] | Kd [5] [µM]
1 | B1 | 122 | 67 | 47 | 167 | 44 |  |  |  |  |  | 
2 | B2 |  |  |  |  |  | 100 | 49 |  |  |  | 
3 | B3 | 30 | 72 | 68 | 101 | 76 |  |  |  |  |  | 
4 | B4 |  |  |  |  |  |  |  | 34 |  |  | 
5 | B5 | 435 | 116 | 100 |  | 64 |  |  |  |  |  | 
6 | B6 | 33 | 26 | 22 | 18 | 37 |  |  |  | 136 |  | 
7 | B7 |  | 101 | 88 | 191 | 47 |  |  |  | 58 |  | 
8 | B8 | 56 | 4 | 2 | 49 | 46 |  |  |  |  |  | 
9 | B9 | 112 | 65 | 53 |  | 56 |  |  |  | 98 | 91 | 
10 | B10 | 99 | 73 | 67 |  | 150 |  |  |  | 55 |  | 
11 | B11 | 114 | 66 | 67 | 115 | 102 |  |  |  | 76 |  | 
12 | B12 |  | 74 | 66 |  | 143 |  |  |  |  |  | 
13 | B13 |  |  |  |  |  |  |  | 27 |  |  | 
14 | B14 |  |  |  |  |  |  |  |  |  |  | 30
